B1: Magnesium transporter NIPA4 (Homo sapiens), Q0D2K0 (parent)
chain: MELRVSNTSCENGSLLHLYCSSQEVLCQIVNDLSPEVPSNATFHSWQERIRQNYGFYIGLGLAFLSSFLIGSSVILKKKGLLRLVATGATRAVDGGFGYLKDAMWWAGFLTMAAGEVANFGAYAFAPATVVTPLGALSVLISAILSSYFLRESLNLLGKLGCVICVAGSTVMVIHAPEEEKVTTIMEMASKMKDTGFIVFAVLLLVSCLILIFVIAPRYGQRNILIYIIICSVIGAFSVAAVKGLGITIKNFFQGLPVVRHPLPYILSLILALSLSTQVNFLNRALDIFNTSLVFPIYYVFFTTVVVTSSIILFKEWYSMSAVDIAGTLSGFVTIILGVFMLHAFKDLDISCASLPHMHKNPPPSPAPEPTVIRLEDKNVLVDNIELASTSSPEEKPKVFIIHS

Variants of: B1
Settings: with SLC27A4, Q6P1M0
SLC27A4, Q6P1M0, sequence (Q6P1M0 whole entry, looked up): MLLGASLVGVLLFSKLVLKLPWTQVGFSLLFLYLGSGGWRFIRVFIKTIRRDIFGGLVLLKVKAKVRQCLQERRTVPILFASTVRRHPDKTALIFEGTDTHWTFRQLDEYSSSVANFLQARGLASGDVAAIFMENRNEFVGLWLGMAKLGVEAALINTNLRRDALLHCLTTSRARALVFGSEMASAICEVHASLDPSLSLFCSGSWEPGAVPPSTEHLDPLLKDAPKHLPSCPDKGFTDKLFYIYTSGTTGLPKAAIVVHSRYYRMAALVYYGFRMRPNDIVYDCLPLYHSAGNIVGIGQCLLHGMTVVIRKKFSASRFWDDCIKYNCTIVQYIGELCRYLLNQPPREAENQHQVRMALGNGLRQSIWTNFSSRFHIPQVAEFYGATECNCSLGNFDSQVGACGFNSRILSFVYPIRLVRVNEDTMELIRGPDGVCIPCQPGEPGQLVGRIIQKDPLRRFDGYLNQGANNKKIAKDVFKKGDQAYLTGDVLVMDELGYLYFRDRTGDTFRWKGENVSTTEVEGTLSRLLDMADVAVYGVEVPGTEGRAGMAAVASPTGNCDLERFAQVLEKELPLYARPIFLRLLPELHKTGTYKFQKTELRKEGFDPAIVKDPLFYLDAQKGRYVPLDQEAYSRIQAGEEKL

effect of a mutation on the interaction	Variant
decreasing interaction	A114D

Source: IntAct's records for PubMed 23290633
